According to publication doi:10.1101/2021.10.06.463369:

Target: T1, AITR6-His (Arabidopsis thaliana, UniProt Q9FGW7 1-302)
T1 sequence: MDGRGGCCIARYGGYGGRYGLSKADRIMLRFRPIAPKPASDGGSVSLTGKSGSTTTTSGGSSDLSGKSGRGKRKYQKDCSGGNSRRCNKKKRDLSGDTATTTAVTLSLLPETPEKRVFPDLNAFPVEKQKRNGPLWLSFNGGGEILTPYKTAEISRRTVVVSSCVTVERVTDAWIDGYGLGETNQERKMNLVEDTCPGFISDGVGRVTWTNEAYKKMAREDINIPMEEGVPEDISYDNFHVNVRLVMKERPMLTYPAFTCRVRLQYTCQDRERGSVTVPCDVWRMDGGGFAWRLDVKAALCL
Assay: EMSA

B1: F16 (dsDNA)
DNA 1: ACTCATAAAATATGTCTTTGATTTTTTGTAGTAAT
DNA 2: ATTACTACAAAAAATCAAAGACATATTTTATGAGT
B1: no binding.
